4 molecules from patent US20240262923A1 (Sanofi, published 2024) can be followed below.

Where two headings read alike, the source gives them in different places.

Experiment [1] concerns the target T1, human PD-1 expressed on cells (300.19 pre-B cells, PD-1 NFAT-luc2 Jurkat cells, primary T-cells) (human, UniProt Q15116 25-288).
T1 construct: GenBank NP 005009.2 printed; also called hPD-1; Pre-B hPD-1
The experiment can be described thus: flow cytometry on Jurkat reporter cells.

Experiment [2] deals with T1, human PD-1 expressed on cells (300.19 …). Put plainly: flow cytometry on transfected 300.19 pre-B cells.
Experiment [3] has as its target T2, cynomolgus monkey 4-1BB expressed on 300.19 pre-B cells (cynomolgus monkey, UniProt A9YYE7 24-254).
T2 construct: whole, on cells; also called cy4-1BB; Pre-B cy4-1BB
Put plainly: flow cytometry on transfected 300.19 pre-B cells.

The target of experiment [4] is T3, human 4-1BB expressed on cells (300.19 pre-B cells, Jurkat NF-κB-luc2P cells, primary T-cells) (human, UniProt Q07011 24-255).
T3 construct: also called h4-1BB; Pre-B h4-1BB
The experiment can be described thus: flow cytometry on transfected 300.19 pre-B cells. Background: In flow cytometry, cells or beads pass a laser one at a time.

The target in experiment [5] is T4, cynomolgus monkey PD-1 expressed on 300.19 pre-B cells (cynomolgus monkey, UniProt B0LAJ3 25-288).
T4 construct: also called cyPD-1; Pre-B cyPD-1
Put plainly: flow cytometry on transfected 300.19 pre-B cells.

The target of experiment [6] is T1, human PD-1 expressed on cells (300.19 …). The experiment can be described thus: cell-based or functional assay.
For experiment [7] the target is unchanged. Put plainly: flow cytometry on anti-CD3-stimulated primary human T-cells.
Experiment [8] deals with T5, PD-1 in the PD-1/PD-L1 interaction assay (human, UniProt Q15116 25-167, limits assumed). The experiment can be described thus: PD-1/PD-L1 interaction assay, Relative EC50, IgG1 LALA.
Experiment [9] has as its target T5, PD-1 in the PD-1/PD-L1 interaction assay. The experiment can be described thus: PD-1/PD-L1 interaction assay, Relative EC50, Fab.
Experiment [10] shares this target. Put plainly: PD-1/PD-L1 interaction assay, EC50 of Fab against IgG1 LALA.
Experiment [11] has as its target T6, human PD-1 (SPR analyte) (human, UniProt Q15116 25-167, limits assumed).
T6 construct: Soluble analyte in SPR; also called hPD-1
Put plainly: SPR (Biacore 8K), binder captured on anti-Fc chip, target as analyte, 1:1 model.

Experiment [12] concerns the target T7, human 4-1BB (SPR analyte) (human, UniProt Q07011 24-186).
T7 construct: also called h4-1BB
The experiment is described as above.

For experiment [13], the target named is T3, human 4-1BB expressed on cells (300.19 …). The experiment can be described thus: flow cytometry on Jurkat reporter cells.
The target of experiment [14] is T8, cynomolgus monkey 4-1BB (SPR analyte) (cynomolgus monkey, UniProt A9YYE7 24-186).
T8 construct: also called cy4-1BB
T8 sequence: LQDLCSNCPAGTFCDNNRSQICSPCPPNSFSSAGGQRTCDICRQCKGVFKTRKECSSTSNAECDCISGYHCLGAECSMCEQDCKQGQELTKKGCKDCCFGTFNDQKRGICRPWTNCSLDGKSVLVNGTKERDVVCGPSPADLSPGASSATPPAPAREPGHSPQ
Put plainly: SPR, KD on cy4-1BB against KD on h4-1BB. A general note: SPR reads the build-up and loss of mass on a sensor chip optically.

For experiment [15], the target named is T3, human 4-1BB expressed on cells (300.19 …). The experiment can be described thus: cell-based or functional assay.
Experiment [16] addresses T6, human PD-1 (SPR analyte). Put plainly: SPR (Biacore 8K), binder captured on anti-Fc chip, target as analyte, 1:1 model. The source holds these as a separate data set.
Experiment [17] concerns the target T9, cynomolgus monkey PD-1 (SPR analyte) (cynomolgus monkey, UniProt B0LAJ3 25-170).
T9 construct: also called cyPD-1
The description is as above.

The target in experiment [18] is T8, cynomolgus monkey 4-1BB (SPR analyte). Described as above.
Experiment [19] deals with T7, human 4-1BB (SPR analyte). Described as above. This is another data set of the same source.
The target in experiment [20] is T9, cynomolgus monkey PD-1 (SPR analyte). Put plainly: SPR, KD on cyPD-1 against KD on hPD-1.
Experiment [21] concerns the target T10, human His-tagged 4-1BB recombinant protein (human, UniProt Q07011 24-186).
T10 construct: also called human 4-1BB; h4-1BB; not shown: His tag
The experiment can be described thus: ELISA (FIG. 7A), bivalent monoparatopic Fab-like. A general note: An ELISA detects its analyte on a solid surface through an enzyme-linked reagent.

One may read the EC50 as the midpoint of the concentration-response curve. As usually defined, the Kd is the equilibrium constant for the complex coming apart.

T3 sequence (Q07011 24-255 limits assumed): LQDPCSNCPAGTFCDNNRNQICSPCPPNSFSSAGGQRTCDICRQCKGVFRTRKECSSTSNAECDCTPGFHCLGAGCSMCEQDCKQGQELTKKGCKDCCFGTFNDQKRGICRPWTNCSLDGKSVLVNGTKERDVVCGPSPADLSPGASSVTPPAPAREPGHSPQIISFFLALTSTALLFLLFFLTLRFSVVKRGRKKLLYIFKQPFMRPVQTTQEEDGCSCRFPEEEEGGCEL
T1 sequence (Q15116 25-288 limits assumed): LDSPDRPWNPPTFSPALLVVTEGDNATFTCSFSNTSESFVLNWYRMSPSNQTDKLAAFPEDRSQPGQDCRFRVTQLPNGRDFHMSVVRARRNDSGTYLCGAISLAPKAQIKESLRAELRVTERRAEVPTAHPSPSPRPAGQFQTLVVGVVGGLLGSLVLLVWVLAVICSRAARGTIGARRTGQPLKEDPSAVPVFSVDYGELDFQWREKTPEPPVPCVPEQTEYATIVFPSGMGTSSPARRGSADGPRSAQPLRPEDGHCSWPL
T6 sequence (Q15116 25-167 limits assumed): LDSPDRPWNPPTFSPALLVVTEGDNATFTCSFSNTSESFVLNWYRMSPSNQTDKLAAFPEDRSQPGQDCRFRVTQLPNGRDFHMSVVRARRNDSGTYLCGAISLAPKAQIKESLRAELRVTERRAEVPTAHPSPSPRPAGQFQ
T5 sequence (Q15116 25-167 limits assumed): as above
T4 sequence (B0LAJ3 entry or part of it limits assumed): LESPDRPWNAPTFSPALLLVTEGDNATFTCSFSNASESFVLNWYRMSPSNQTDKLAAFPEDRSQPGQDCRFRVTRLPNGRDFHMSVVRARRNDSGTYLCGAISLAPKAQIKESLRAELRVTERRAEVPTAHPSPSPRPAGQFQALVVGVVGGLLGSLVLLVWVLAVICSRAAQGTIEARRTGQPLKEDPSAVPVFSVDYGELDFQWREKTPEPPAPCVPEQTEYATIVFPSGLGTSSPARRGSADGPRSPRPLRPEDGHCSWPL
T9 sequence (B0LAJ3 entry or part of it limits assumed): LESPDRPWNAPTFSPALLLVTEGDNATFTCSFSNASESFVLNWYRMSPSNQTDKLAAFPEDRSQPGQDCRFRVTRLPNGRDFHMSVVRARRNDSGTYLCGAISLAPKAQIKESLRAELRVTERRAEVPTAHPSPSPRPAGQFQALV

B1: anti-PD-1 antibody clone T5 (IgG1 LALA) (antibody, V domains shown)
VH: QLQLQESGPGLVKPSETLSLTCTVSGGSISTSSYFWGWIRQPPGKGLEWIGSIYRSGSTYYNPSLKSRVTISVDTSKNQFSLKLSSVTAADTAVYYCARGITGDPGDYWGQGTLVTVSS
VL: EIVLTQSPATLSLSPGERATLSCGASQSVSINFLAWYQQKPGLAPRLLIYEASSRATGIPDRFSGSGSGTDFTLTISRLEPEDFAVYYCQQYGSSPYTFGQGTKLEIK
B1: the EC50 in experiment [1] was found to be 0.278 nM; in experiment [2] it was 0.284 nM; in experiment [5], 0.417 nM; in experiment [7], 0.205 nM; in [8], 0.278 nM. In addition, the Emax was found to be 280 MFI in [1], 6240 MFI in [2] and 17700 MFI in [5]. Further, the binding result in experiment [3] and in experiment [4] was “no binding” throughout. Further, in [6], the “IC50 (nM) PD-1 reporter assay” value amounted to 2.8 nM.

B2: anti-PD-1 antibody clone T5, Fab format (Fab, V domains shown)
VH: B1 VH
VL: B1 VL
Regarding B2, it took 48.8 nM to reach a half-maximal effect in [9] (EC50). Also, the “Ratio Fab:IgG1” value in experiment [10] is 176 fold.

B3: Construct #3 (anti-4-1BB/anti-PD-1 bispecific binding molecule) (bispecific antibody, IgG1)
heavy: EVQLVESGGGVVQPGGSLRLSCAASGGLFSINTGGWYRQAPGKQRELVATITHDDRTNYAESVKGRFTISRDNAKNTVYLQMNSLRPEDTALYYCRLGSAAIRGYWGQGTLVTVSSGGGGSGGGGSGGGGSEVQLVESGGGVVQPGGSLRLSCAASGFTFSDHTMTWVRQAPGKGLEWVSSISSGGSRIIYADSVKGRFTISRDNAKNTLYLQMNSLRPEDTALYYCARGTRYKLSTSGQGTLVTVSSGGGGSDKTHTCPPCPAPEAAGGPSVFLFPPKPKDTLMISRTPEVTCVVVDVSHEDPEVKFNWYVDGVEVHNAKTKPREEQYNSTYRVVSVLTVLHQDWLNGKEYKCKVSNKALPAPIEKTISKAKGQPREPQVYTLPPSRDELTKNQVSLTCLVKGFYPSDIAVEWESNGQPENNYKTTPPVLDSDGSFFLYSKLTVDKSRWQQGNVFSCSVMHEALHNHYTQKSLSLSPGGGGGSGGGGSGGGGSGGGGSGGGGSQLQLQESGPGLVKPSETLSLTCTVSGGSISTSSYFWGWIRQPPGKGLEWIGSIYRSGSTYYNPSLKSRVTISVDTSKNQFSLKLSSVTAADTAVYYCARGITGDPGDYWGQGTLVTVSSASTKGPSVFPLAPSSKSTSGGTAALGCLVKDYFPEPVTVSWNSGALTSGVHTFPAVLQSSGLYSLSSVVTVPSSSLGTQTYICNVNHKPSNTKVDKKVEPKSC
light: EIVLTQSPATLSLSPGERATLSCGASQSVSINFLAWYQQKPGLAPRLLIYEASSRATGIPDRFSGSGSGTDFTLTISRLEPEDFAVYYCQQYGSSPYTFGQGTKLEIKRTVAAPSVFIFPPSDEQLKSGTASVVCLLNNFYPREAKVQWKVDNALQSGNSQESVTEQDSKDSTYSLSSTLTLSKADYEKHKVYACEVTHQGLSSPVTKSFNRGEC
notes: also called Original Construct #3
For B3, the Kd was 16 nM with human PD-1 (SPR analyte) [11]; 7.82 nM in [12]; 7.05 nM in the experiment with human PD-1 (SPR analyte) [16]; 18.2 nM in experiment [17]; 25.1 nM in experiment [18]; 11.8 nM in [19]. Besides, the EC50 in experiment [1] was 12.3 nM; in [13], 0.191 nM; in experiment [2], 3.69 nM; in experiment [3] it was 0.312 nM; in experiment [4], 0.299 nM; in [5] it was 7.77 nM. Besides, the Emax in [1] was determined as 321 MFI; in [2], 3750 MFI; in experiment [5] it was 13800 MFI. The “Ratio KD cyno/human” value in experiment [14] stood at 2.1 fold; in experiment [20] it was 2.6 fold. Further, the “IC50 (nM) PD-1 reporter assay” value in experiment [6] turned out to be 6.7 nM. For the same molecule, the “EC50 (nM) 4-1BB reporter assay” value in experiment [15] was found to be 0.1 nM.

B4: anti-4-1BB clone #5c VHH, bivalent monoparatopic Fab-like construct (other)
chain 1: QVQLQESGGGLVQAGGSLRLSCAASGDTFSSYAMGWFRQAPGERLEWVASINPSGGSQSYHPSVKDRFTISRDNGKNILFLQLDKLNPEDTAVYVCARGTRYKIFASGQGTQVTVSS
chain 2: B4 chain 1
notes: not shown: human CL (lambda) constant domain, tag if any; human IgG1 CH1 domain, HA and 6-His tags
Consider B4, for which the binding result in [21] is listed as “binds”.
